From patent publication US20260041793A1, “VIRAL VECTOR” (University of Sheffield, priority 2022, published 2026)

B1: GGGCCCAGAAGUCCAAGUUAU UUCAAGAGA AUAACUUGGACUUCUGGGCCC (nucleic acid)
chain 1: GGGCCCAGAAGTCCAAGTTAT
chain 2: AUAACUUGGACUUCUGGGCCC
chain 3: GGGCCCAGAAGUCCAAGUUAUUUCAAGAGAAUAACUUGGACUUCUGGGCCC
modifications: expressed or natural sequence; chain 1: target site or template, no part of the molecule
notes: shRNA targeting SRSF1
B2: GGAAGAUCUCGAUCUCGAAGC UUCAAGAGA GCUUCGAGAUCGAGAUCUUCC (nucleic acid)
chain 1: GGAAGATCTCGATCTCGAAGC
chain 2: GCUUCGAGAUCGAGAUCUUCC
chain 3: GGAAGAUCUCGAUCUCGAAGCUUCAAGAGAGCUUCGAGAUCGAGAUCUUCC
modifications: expressed or natural sequence; chain 1: target site or template, no part of the molecule
notes: shRNA targeting SRSF1
B3: GCAGAGGAUCACCACGCUAUU UUCAAGAGA AAUAGCGUGGUGAUCCUCUGC (nucleic acid)
chain 1: GCAGAGGATCACCACGCTATT
chain 2: AAUAGCGUGGUGAUCCUCUGC
chain 3: GCAGAGGAUCACCACGCUAUUUUCAAGAGAAAUAGCGUGGUGAUCCUCUGC
modifications: expressed or natural sequence; chain 1: target site or template, no part of the molecule
notes: shRNA targeting SRSF1

What follows are molecules tested on SRSF1 (assay: Western immunoblotting of SRSF1 in human cells co-transfected with scAAV plasmids and C9ORF72-repeat reporter). Settings: co-transfected with sense or antisense C9ORF72-repeat reporter, FIG. 4.
Type: cell-based

Row | Molecule | depletion of SRSF1
1 | B1 | efficient depletion of SRSF1
2 | B2 | efficient depletion of SRSF1
3 | B3 | efficient depletion of SRSF1
